Biological target: FcγRIIIa on Jurkat effector cells (UniProt P08637)
Experiment: cell-based or functional assay

Sequence of FcγRIIIa on Jurkat effector cells (P08637 17-254 limits assumed): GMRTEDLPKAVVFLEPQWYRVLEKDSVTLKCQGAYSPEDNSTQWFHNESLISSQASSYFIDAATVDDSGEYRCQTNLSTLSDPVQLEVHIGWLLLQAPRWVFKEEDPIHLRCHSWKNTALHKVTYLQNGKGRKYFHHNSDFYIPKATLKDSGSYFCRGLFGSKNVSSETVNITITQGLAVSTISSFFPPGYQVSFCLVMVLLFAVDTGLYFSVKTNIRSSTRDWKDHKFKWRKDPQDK

EC50 of in vitro ADCC reporter assay (SKBR3 targets, Jurkat effector cells), independent measurement 1: 3.2 pM
EC50 of in vitro ADCC reporter assay (SKBR3 targets, Jurkat effector cells), independent measurement 2: 4.7 pM
B1: templated αCD16-Fab construct with the C-terminal fusion (175Cys trastuzumab Fab + C-terminal meditope αCD16 nanobody) (bispecific antibody, part only; not given: trastuzumab Fab chains, V domains shown, part only)
VHH: EVQLVESGGELVQAGGSLRLSCAASGLTFSSYNMGWFRRAPGKEREFVASITWSGRDTFYADSVKGRFTISRDNAKNTVYLQMSSLKPEDTAVYYCAANPWPVAAPRSGTYWGQGTQVTVSSGSHHHHHHGGSQFDLCTRRLQS

Source: US20200368364A1, “CYSTEINE PEPTIDE-ENABLED ANTIBODIES” (City of Hope, priority 2016, published 2020)
